Square brackets hold non-standard residues; d marks the D form. Oic = O=C(O)[C@@H]1C[C@@H]2CCCC[C@@H]2N1; 1Nal = N[C@@H](Cc1cccc2ccccc12)C(=O)O; 2Nal = N[C@@H](Cc1ccc2ccccc2c1)C(=O)O; d1Nal = N[C@H](Cc1cccc2ccccc12)C(=O)O; Tic = O=C(O)[C@@H]1Cc2ccccc2CN1; dTic = O=C(O)[C@H]1Cc2ccccc2CN1; dOrn = NCCC[C@@H](N)C(=O)O; Orn = NCCC[C@H](N)C(=O)O; Dab = NCC[C@H](N)C(=O)O; Abu = CC[C@H](N)C(=O)O
molecular target: chemokine receptor CXCR7 (RDC1) (UniProt P25106); test: cell-based or functional assay
Sequence (P25106 whole entry): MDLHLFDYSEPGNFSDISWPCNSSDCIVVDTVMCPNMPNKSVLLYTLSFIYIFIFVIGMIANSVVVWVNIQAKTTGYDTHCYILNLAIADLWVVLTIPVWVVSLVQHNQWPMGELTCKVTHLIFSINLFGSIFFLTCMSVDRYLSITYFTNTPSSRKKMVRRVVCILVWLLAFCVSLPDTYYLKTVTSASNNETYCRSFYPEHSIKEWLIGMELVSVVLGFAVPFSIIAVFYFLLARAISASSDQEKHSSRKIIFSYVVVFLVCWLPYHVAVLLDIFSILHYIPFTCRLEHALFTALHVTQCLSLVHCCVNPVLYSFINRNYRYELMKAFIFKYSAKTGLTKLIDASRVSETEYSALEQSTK

| Substance | β-Arrestin EC50 |
| --- | --- |
| cyclo(W[dF]WR[dP][Tic]) | 4.8 nM |
| cyclo(-1Nal-^DHis-Tyr-Arg-^DPro-Azt-) (peptide) | 44.4 nM |
| cyclo([1Nal][dH]IR[dP][Tic]) | 347 nM |
| cyclo(W[dR]HR[dP][Tic]) | 348 nM |
| cyclo([1Nal][dF]WR[dP][Tic]) | 61.6 nM |
| cyclo(W[dI]WR[dP][Tic]) | 63.4 nM |
| cyclo(-Trp-^DHis-Ile-Arg-^DPro-Azt-) (peptide) | 344 nM |
| cyclo(Y[dF]WR[dP][Tic]) | 11.5 nM |
| cyclo(W[dH]WR[dP][Tic]) | 204 nM |
| cyclo(-1Nal-^DArg-Ile-Arg-^DPro-Azt-) (peptide) | 41.2 nM |
| cyclo(I[dR]IR[dP][Tic]) | 34.3 nM |
| cyclo(W[dF]WY[dP][Tic]) | 94.5 nM |
| cyclo(R[dH]WR[dP][Tic]) | 144 nM |
| cyclo(W[dOrn]WR[dP][Tic]) | 111 nM |
| cyclo(W[dF]IR[dP][Tic]) | 148 nM |
| cyclo(H[d1Nal]HW[dP][Tic]) | 269 nM |
| cyclo(F[dF]WR[dP][Tic]) | 22.5 nM |
| cyclo(W[dF]W[Orn][dP][Tic]) | 12.1 nM |

| Substance | β-Arrestin EC50 |
| --- | --- |
| cyclo(-Trp-^DThr-Tyr-Arg-^DPro-Azt-) (peptide) | 148 nM |
| cyclo(W[dW]WR[dP][Tic]) | 64.9 nM |
| cyclo(-Trp-^DArg-Trp-Ile-^DPro-Azt-) (peptide) | 208 nM |
| cyclo(H[dW]HR[dP][Tic]) | 226 nM |
| cyclo(A[dF]WR[dP][Tic]) | 163 nM |
| cyclo(W[dF]WR[dP][Oic]) | 0.8 nM |
| cyclo(W[dF][2Nal]R[dP][Tic]) | 16.9 nM |
| cyclo(I[dH]WR[dP][Tic]) | 70.8 nM |
| cyclo(R[dW]HR[dP][Tic]) | 234 nM |
| cyclo(-Trp-^DPhe-Trp-Arg-^DPip-Pro-) (peptide) | 78.7 nM |
| cyclo(W[dF]WR[dTic]P) | 83.6 nM |
| cyclo(H[dF]WR[dP][Tic]) | 32.1 nM |
| cyclo(-Trp-^DPhe-Trp-Arg-^DPro-(4S)-Hyp(Bn)-) (peptide) | 1.7 nM |
| cyclo(W[dF]WK[dP][Tic]) | 16.5 nM |
| cyclo(-His(Me)-^DPhe-Trp-Arg-^DPro-Tic-) (peptide) | 32.5 nM |
| cyclo([Abu][dR]RW[dP][Tic]) | 97.5 nM |
| cyclo(W[dF]RR[dP][Tic]) | 178 nM |

The remaining lines, values ahead:

| β-Arrestin EC50 | Substance |
| --- | --- |
| 326 nM | cyclo(W[dF]YR[dP][Tic]) |
| 280 nM | cyclo([1Nal][dR]WR[dP][Tic]) |
| 12.8 nM | cyclo(R[dF]WR[dP][Tic]) |
| 47.7 nM | cyclo(-Trp-^DArg-Ile-Arg-^DPro-Azt-) (peptide) |
| 0.4 nM | cyclo(-Trp-^DPhe-Trp-Arg-^DPro-Tiq-) (peptide) |
| 128 nM | cyclo(W[dR]WR[dP][Tic]) |
| 85.7 nM | cyclo(-1Nal-^DHis-Ile-Arg-^DPro-Azt-) (peptide) |
| 75.7 nM | cyclo(W[dF]FR[dP][Tic]) |
| 170 nM | cyclo(-Trp-^DArg-Trp-Arg-^DPro-Azt-) (peptide) |
| 342 nM | cyclo(-Trp-^DHis-Trp-Arg-^DPro-Azt-) (peptide) |
| 18.3 nM | cyclo(W[dF]WH[dP][Tic]) |
| 317 nM | cyclo(I[dW]HR[dP][Tic]) |
| 217 nM | cyclo(W[dR]HW[dP][Tic]) |
| 146 nM | cyclo(-1Nal-^DArg-Trp-Arg-^DPro-Azt-) (peptide) |
| 8.9 nM | cyclo([2Nal][dF]WR[dP][Tic]) |
| 12.6 nM | cyclo(W[dF]W[Dab][dP][Tic]) |

Reference: patent US20130023483A1
